Results published in article PMC6910952 (Nature Communications, 2019).
Substitutions are numbered along the chain they refer to. No end group written: not given here.

B1: FlAsH-labeled His6-SUMO-yUfd1^288–305-GWCCPGCC (peptide, UniProt P53044 288-305, looked up)
chain: {His6-SUMO}-EPAKLDLPEGQLFFGFPMGWCCPGCC
modifications: cysteine pairing not given here; also: FlAsH label bound to CCPGCC motif
notes: the assay methods print 280-305; also called yUfd1-FlAsH; yUfd1 WT; source: E. coli Rosetta (DE3) (pCold-SUMO), purified (Ni-NTA, Resource Q), labeled with FlAsH-EDT2; not shown: His6, N-terminal, kept; SUMO, N-terminal, kept
B2: yUfd1 (full length, untagged) (natural protein, Saccharomyces cerevisiae, UniProt P53044 1-361, looked up)
chain: MFSGFSSFGGGNGFVNMPQTFEEFFRCYPIAMMNDRIRKDDANFGGKIFLPPSALSKLSMLNIRYPMLFKLTANETGRVTHGGVLEFIAEEGRVYLPQWMMETLGIQPGSLLQISSTDVPLGQFVKLEPQSVDFLDISDPKAVLENVLRNFSTLTVDDVIEISYNGKTFKIKILEVKPESSSKSICVIETDLVTDFAPPVGYVEPDYKALKAQQDKEKKNSFGKGQVLDPSVLGQGSMSTRIDYAGIANSSRNKLSKFVGQGQNISGKAPKAEPKQDIKDMKITFDGEPAKLDLPEGQLFFGFPMVLPKEDEESAAGSKSSEQNFQGQGISLRKSNKRKTKSDHDSSKSKAPKSPEVIEID
notes: Ufd1 of Saccharomyces cerevisiae (yUfd1), full length; codon-optimized synthetic cDNA; removal of GST by HRV3C is surmised; also called untagged Ufd1; source: E. coli Rosetta (DE3) (pGEX-6P1), purified

Columns and labels:
Details in all cases: both partners purified
His6-yNpl4^113–580 L296A = biological target: T1, His6-yNpl4^113–580 L296A (Saccharomyces cerevisiae, UniProt P33755 113-580, L296A); assay: fluorescence polarisation; fluorescence anisotropy; 1 nM FlAsH-labeled His6-SUMO-yUfd1 peptide, His6-yNpl4^113–580 in two-fold dilution series; 25 °C; 50 mM Tris-HCl pH 8.0, 100 mM NaCl, 5 mM β-mercaptoethanol, 0.1 g/L BSA
T1 construct: also called yNpl4 L296A; source: E. coli Rosetta (DE3), purified (Ni-NTA, Resource Q); not shown: His6, N-terminal, kept
T1 sequence (looked up): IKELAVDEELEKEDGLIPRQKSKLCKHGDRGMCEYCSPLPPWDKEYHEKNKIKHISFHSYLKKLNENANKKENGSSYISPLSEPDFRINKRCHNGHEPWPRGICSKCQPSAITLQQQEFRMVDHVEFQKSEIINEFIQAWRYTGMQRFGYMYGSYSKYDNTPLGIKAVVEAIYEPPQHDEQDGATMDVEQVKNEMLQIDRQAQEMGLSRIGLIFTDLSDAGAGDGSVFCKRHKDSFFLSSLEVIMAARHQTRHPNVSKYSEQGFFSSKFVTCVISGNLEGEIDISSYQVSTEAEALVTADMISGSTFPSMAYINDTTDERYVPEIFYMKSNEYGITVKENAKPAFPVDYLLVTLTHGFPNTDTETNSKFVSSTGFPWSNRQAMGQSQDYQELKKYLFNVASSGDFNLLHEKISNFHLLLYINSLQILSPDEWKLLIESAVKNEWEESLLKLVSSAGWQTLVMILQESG

His6-yNpl4^113–580 L353A = biological target: T2, His6-yNpl4^113–580 L353A (Saccharomyces cerevisiae, UniProt P33755 113-580, L353A); assay: as above
T2 construct: also called yNpl4 L353A; source: E. coli Rosetta (DE3), purified (Ni-NTA, Resource Q); not shown: His6, N-terminal, kept
T2 sequence (looked up): T1 sequence (looked up) with A184L, L241A

His6-yNpl4^113–580 R364A = biological target: T3, His6-yNpl4^113–580 R364A (Saccharomyces cerevisiae, UniProt P33755 113-580, R364A); assay: as above
T3 construct: also called yNpl4 R364A; source: E. coli Rosetta (DE3), purified (Ni-NTA, Resource Q); not shown: His6, N-terminal, kept
T3 sequence (looked up): T1 sequence (looked up) with A184L, R252A

[1] = biological target: T4, GST-yNpl4 (full length, wild type) (Saccharomyces cerevisiae, UniProt P33755 1-580); assay: pull-down; GST-yNpl4 (0.5 μM) on glutathione beads with 0.5 μM yUfd1 alone; full-length proteins; SDS-PAGE, Coomassie (Fig. 3e)
T4 construct: Npl4 of Saccharomyces cerevisiae (yNpl4), full length; codon-optimized synthetic cDNA; also called GST-Npl4; source: E. coli Rosetta (DE3) (pGEX-6P1), purified (Glutathione Sepharose FF, Resource Q); not shown: GST, N-terminal, kept
T4 sequence (looked up): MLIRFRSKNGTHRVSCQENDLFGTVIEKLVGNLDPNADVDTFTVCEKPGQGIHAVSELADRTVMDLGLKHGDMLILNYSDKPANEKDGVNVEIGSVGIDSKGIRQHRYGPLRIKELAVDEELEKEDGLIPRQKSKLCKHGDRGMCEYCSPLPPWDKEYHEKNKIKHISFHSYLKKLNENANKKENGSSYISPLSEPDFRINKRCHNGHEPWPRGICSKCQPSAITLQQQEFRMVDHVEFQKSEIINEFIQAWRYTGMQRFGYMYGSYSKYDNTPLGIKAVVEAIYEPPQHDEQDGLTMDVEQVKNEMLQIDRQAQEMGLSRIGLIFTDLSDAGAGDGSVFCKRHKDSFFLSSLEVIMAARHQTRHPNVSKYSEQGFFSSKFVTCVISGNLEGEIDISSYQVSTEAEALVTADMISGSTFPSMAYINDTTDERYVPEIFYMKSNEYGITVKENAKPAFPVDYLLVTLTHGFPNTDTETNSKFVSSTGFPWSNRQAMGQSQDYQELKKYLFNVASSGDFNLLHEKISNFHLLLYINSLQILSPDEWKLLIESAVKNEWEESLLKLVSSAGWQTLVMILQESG

Kd (His6-yNpl4^113–580 L296A) [µM]	Kd (His6-yNpl4^113–580 L353A) [µM]	Kd (His6-yNpl4^113–580 R364A) [µM]	binding result [1]	Binder
7.02	1.38	0.314	–	B1
–	–	–	binds	B2
